Positions count from the first letter of the chain named. Values belong to the binder of their own block, whether it stands above or below them.
Legend:
[1] = molecular target: T1, Peptide 5: Biotin-AEAAAKEAAAKEAAAKEAAAKAAA-[Tyr(PC)]-acid (N-terminal biotin; C-terminal Tyr(PC), PC = p-diazophenyl phosphoryl choline; C-terminal acid); assay: scFv ELISA
T1 construct: synthetic PC-conjugated peptide; the antibodies are directed at the phosphocholine group
T1 peptide: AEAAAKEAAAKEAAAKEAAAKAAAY
How it was run: (§1)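 Bound scFv was read as OD450 after HRP–anti-V5 detection, TMB development and HCl stop. PPE with BSA was incubated 1 h at RT on BSA-blocked wells coated overnight at 4° C. with peptide, or on streptavidin wells loaded 1 h with biotinylated PC-peptides at 1 μg/mL.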

[2] = molecular target: T2, Peptide 4: Biotin-AGGGGSGGGGSGGGGSAAA-Tyr-acid (N-terminal biotin; C-terminal acid); assay: scFv ELISA
T2 construct: control peptide without PC
T2 peptide: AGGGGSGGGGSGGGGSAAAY
How it was run: as §1

[3] = molecular target: T3, Peptide 8: Biotin-AEAAAKEAAAKEAAAKEAAAKAAA-Tyr-acid (N-terminal biotin; C-terminal acid); assay: scFv ELISA
T3 construct: control peptide without PC
T3 peptide: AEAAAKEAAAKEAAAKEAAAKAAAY
How it was run: as §1

[4] = molecular target: T4, Peptide 1: Biotin-AGGGGSGGGGSGGGGSAAA-[Tyr(PC)]-acid (N-terminal biotin; C-terminal Tyr(PC), PC = p-diazophenyl phosphoryl choline; C-terminal acid); assay: scFv ELISA
T4 construct: synthetic PC-conjugated peptide; the antibodies are directed at the phosphocholine group
T4 peptide: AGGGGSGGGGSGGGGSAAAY
How it was run: as §1

[5] = molecular target: BSA (UniProt P02769); assay: scFv ELISA
[6] = molecular target: PC-BSA; assay: ELISA (DELFIA TRF), PC-BSA coated, titrated IgG1
[7] = molecular target: T5, Peptide 4: Biotin-…-Tyr-acid; assay: scFv ELISA, periplasmic extract on coated peptide, anti-V5-HRP detection
T5 sequence (peptide, N-terminal biotin; C-terminal acid): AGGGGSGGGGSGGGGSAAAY

[8] = molecular target: T6, Peptide 8: Biotin-…-Tyr-acid; assay: as above
T6 sequence (peptide, N-terminal biotin; C-terminal acid): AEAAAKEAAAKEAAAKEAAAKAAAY

[9] = molecular target: BSA (UniProt P02769); assay: scFv ELISA, periplasmic extract on coated BSA, anti-V5-HRP detection
[10] = molecular target: T7, Peptide 4: Biotin-AGGGGSGGGGSGGGGSAAA-Tyr-acid (N-terminal biotin; C-terminal acid; no PC); assay: scFv ELISA
T7 construct: control peptide without PC
T7 peptide: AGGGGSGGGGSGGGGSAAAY
How it was run: as §1

[11] = molecular target: T8, Peptide 8: Biotin-AEAAAKEAAAKEAAAKEAAAKAAA-Tyr-acid (N-terminal biotin; C-terminal acid; no PC); assay: scFv ELISA
T8 construct: control peptide without PC
T8 peptide: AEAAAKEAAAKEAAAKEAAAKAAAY
How it was run: as §1

[12] = molecular target: T9, Peptide 1: Biotin-AGGGGSGGGGSGGGGSAAA-[Tyr(PC)]-acid (N-terminal biotin; C-terminal Tyr(PC), PC = p-diazophenyl phosphoryl choline; C-terminal acid); assay: scFv ELISA
T9 peptide: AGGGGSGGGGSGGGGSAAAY
How it was run: as §1

[13] = molecular target: Peptide 5: Biotin-…-[Tyr(PC)]-acid; assay: scFv ELISA
[14] = molecular target: T10, Peptide 8: Biotin-AEAAAKEAAAKEAAAKEAAAKAAA-Tyr-acid (N-terminal biotin; C-terminal acid); assay: scFv ELISA
T10 construct: Control peptide without PC
T10 peptide: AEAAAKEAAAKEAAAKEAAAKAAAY
How it was run: as §1

[15] = molecular target: T11, Peptide 4: Biotin-AGGGGSGGGGSGGGGSAAA-Tyr-acid (N-terminal biotin; C-terminal acid); assay: scFv ELISA
T11 construct: Control peptide without PC
T11 peptide: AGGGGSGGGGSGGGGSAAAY
How it was run: as §1

[16] = molecular target: T12, Peptide 1: Biotin-AGGGGSGGGGSGGGGSAAA-[Tyr(PC)]-acid (N-terminal biotin; C-terminal Tyr(PC), PC = p-diazophenyl phosphoryl choline; C-terminal acid); assay: scFv ELISA
T12 construct: Synthetic phosphocholine-conjugated peptide
T12 peptide: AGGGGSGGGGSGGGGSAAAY
How it was run: as §1

[17] = molecular target: T13, Peptide 5: Biotin-AEAAAKEAAAKEAAAKEAAAKAAA-[Tyr(PC)]-acid (N-terminal biotin; C-terminal Tyr(PC), PC = p-diazophenyl phosphoryl choline; C-terminal acid); assay: scFv ELISA
T13 construct: Synthetic phosphocholine-conjugated peptide
T13 peptide: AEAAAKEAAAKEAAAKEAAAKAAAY
How it was run: as §1

[18] = molecular target: T14, Peptide 5: Biotin-AEAAAKEAAAKEAAAKEAAAKAAA-[Tyr(PC)]-acid (N-terminal biotin; C-terminal Tyr(PC), PC = p-diazophenyl phosphoryl choline; C-terminal acid); assay: scFv ELISA
T14 peptide: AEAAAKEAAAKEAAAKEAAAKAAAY
How it was run: as §1

[19] = molecular target: T15, Peptide 4 (N-terminal biotin; C-terminal Tyr without PC conjugation; C-terminal acid); assay: scFv ELISA, OD450
T15 construct: Unconjugated control peptide
T15 peptide: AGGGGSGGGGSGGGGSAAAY
Procedure: (§2) For ELISA analysis of scFv binding, 96-well polystyrene plates were coated with Peptide 1, 4, 5, 8 or 100 μL BSA (10 μg/mL) in PBS at 4° C. overnight. Plates were washed three times with PBS-Tween and blocked with 100 μL 1% BSA-TBS for 1 hour at room temperature. 96-well streptavidin coated plates were coated with 100 μL biotinylated PC-peptides (1 μg/mL) in PBS for 1 hour at room temperature.
(§3) All plates were washed three times with PBS-Tween before 40 μL aliquots of PPE were added to assay plates along with 50 μL 10% BSA, and plates were incubated for 1 hour at room temperature. After washing, […] HRP conjugated anti-V5 in 5% BSA was added, and plates were incubated at room temperature for 30 mins. Plates were washed and 100 μL TMB substrate was added. Color was left to develop at room temperature before the reaction was stopped with 100 μL 1N HCl. The amount of scFv bound to each well was quantitated from absorbance measurement at 450 nm (OD450).

[20] = molecular target: T16, Peptide 8 (N-terminal biotin; C-terminal Tyr without PC conjugation; C-terminal acid); assay: scFv ELISA, OD450
T16 construct: Unconjugated control peptide
T16 peptide: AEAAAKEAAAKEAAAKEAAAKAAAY
Procedure: as §2, §3

Chain of BSA (P02769 25-607 limits assumed): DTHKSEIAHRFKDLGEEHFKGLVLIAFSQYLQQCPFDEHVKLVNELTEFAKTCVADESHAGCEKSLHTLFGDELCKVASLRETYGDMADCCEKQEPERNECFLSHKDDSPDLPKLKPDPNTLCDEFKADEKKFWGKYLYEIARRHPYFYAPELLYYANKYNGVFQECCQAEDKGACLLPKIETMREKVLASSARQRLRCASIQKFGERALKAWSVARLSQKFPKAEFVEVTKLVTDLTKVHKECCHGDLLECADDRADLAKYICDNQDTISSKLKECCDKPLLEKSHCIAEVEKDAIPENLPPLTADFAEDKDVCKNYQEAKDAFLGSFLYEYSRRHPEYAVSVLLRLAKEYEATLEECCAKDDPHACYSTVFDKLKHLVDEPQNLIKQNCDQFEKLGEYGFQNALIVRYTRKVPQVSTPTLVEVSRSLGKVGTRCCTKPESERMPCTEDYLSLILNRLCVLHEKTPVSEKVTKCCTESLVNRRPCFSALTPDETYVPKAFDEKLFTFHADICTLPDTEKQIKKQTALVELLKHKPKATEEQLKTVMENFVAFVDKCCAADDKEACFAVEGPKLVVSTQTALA
Chain of PC-BSA (P02769 25-607 limits assumed, form in doubt): as the sequence (P02769 25-607 limits assumed) above

OD450 [1]: 0.08 OD450 | OD450 [2]: 0.04 OD450 | OD450 [3]: 0.04 OD450 | OD450 [4]: 0.06 OD450 | OD450 [5]: 0.1 OD450
B1: PcOxP_DB02_E06 (scFv, V domains shown)
VH: EVQLLESGGGLVQPGGSLRLSCAASGFTFSDEYMEWVRQAPGKGLEWVAASRGKGNSYTTEYADSVKGRFTISRDNSKNTLYLQMNSLRAEDTAVYYCARDYYGSSYWYFDVWGQGTLVTVSS
VL: DIQMTQSPSSLSASVGDRVTITCTASESLYSSKHKVHYLAWYQQKPGKAPKLLIYGASNRYIGVPSRFSGSGSGTDFTLTISSLQPEDFATYYCAQFYSYPLTFGGGTKVEIK
notes: scFv in periplasmic extract

EC50 [6]: 0.394 nM
B2: PcOxP_DB02_C09 (human IgG1) (antibody, V domains shown)
VH: B1 VH with E32A, G53N, G55A, S57D
VL: B1 VL with S58G, S99F

EC50 [6]: 0.294 nM
B3: PcOxP_DB04_A04 (human IgG1) (antibody, V domains shown)
VH: B1 VH with E32F, G53N, G55W, S57D
VL: DIVMTQSPDSLAVSLGERATINCTASQSVYSSKNKKHYLAWYQQKPGQPPKLLIYGASNRYIGVPDRFSGSGSGTDFTLTISSLQAEDVAVYYCAQFYRYPLTFGGGTKVEIK

OD450 [7]: 0.06 OD450 | OD450 [8]: 0.07 OD450 | OD450 [9]: 0.07 OD450
B4: PcOxP_DB04_H01 (scFv) (scFv, part only; not given: linker, domain order, V5 tag, V domains shown, not shown: another chain or arm of the molecule; small tags and cut ends)
VH: B1 VH with E32Y, G53N, G55Y, S57D
VL: B3 VL with Q27E, V29L, N34H, K36V, I62S, R99N

OD450 [9]: 0.07 OD450
B5: PcOxP_DB04_G11 (scFv) (scFv, V domains shown)
VH: B1 VH with E32H, G53W, G55A, S57D
VL: B3 VL with Q27E, V29L, N34H, K36V, R60T, R99S

OD450 [10]: 0.05 OD450 | OD450 [11]: 0.05 OD450 | OD450 [12]: 0.1 OD450 | OD450 [13]: 0.92 OD450 | OD450 [5]: 0.07 OD450
B6: PcOxP_DB01_H07 (scFv, V domains shown)
VH: B1 VH with E32H, G53N, G55Y, S57D, Y102I
VL: B3 VL with Q27E, R99S
notes: scFv in periplasmic extract

OD450 [14]: 0.06 OD450 | OD450 [15]: 0.04 OD450 | OD450 [16]: 0.07 OD450 | OD450 [13]: 0.19 OD450 | OD450 [5]: 0.06 OD450
B7: PcOxP_DB02_H02 (scFv, V domains shown)
VH: B1 VH with F27P, E32F, G53N, G55A, S57D
VL: B3 VL with Q27E, V29L, N34H, K36V, R99D
notes: scFv in periplasmic extract

OD450 [14]: 0.05 OD450 | OD450 [17]: 0.1 OD450 | OD450 [15]: 0.05 OD450 | OD450 [16]: 0.06 OD450 | OD450 [5]: 0.06 OD450
B8: PcOxP_DB02_G03 (scFv, V domains shown)
VH: B1 VH with T28G, E32F, G53N, G55A, S57D, F110H
VL: B3 VL with Q27E, S28D, V29L, N34H, K36V, A57T, F97Y, R99S
notes: scFv in periplasmic extract

OD450 [10]: 0.09 OD450 | OD450 [11]: 0.04 OD450 | OD450 [18]: 0.09 OD450 | OD450 [12]: 0.06 OD450 | OD450 [5]: 0.09 OD450
B9: PcOxP_DB01_H09 (scFv, V domains shown)
VH: B1 VH with E32Y, G53N, G55A, S57T, F110D
VL: B3 VL with Q27E, V29L, N34H, K36V, R99S
notes: scFv in periplasmic extract

B10: PcOxP_DB02_E06 (scFv) (scFv, V domains shown)
VH: B1 VH
VL: B1 VL
notes: scFv in periplasmic extract
binding result [19]: no binding (tested: avg neg. control OD450 + 3x SD) | binding result [20]: no binding (tested: avg neg. control OD450 + 3x SD)

From patent publication US20250320312A1 (OXITOPE PHARMA B V, published 2025)
